Results reported in patent US6635440, “Method of isolation of RNA-binding compounds” (European Molecular Biology Laboratory).
Where a chain is given by its changes, count along the chain named.

B1: U1Awt (U1 snRNA loop 2) GFP 5'UTR (ssRNA)
RNA: AAUUAUCUACUUAAGCGAUUGCACUCCCGCUUAAGAACACAAAACUCGAGAACAUAUUUUUAAUAUUAUG
B2: MSC GFP 5'UTR (ssRNA)
RNA: AAUUAUCUACUUAAGGACCAUCAGGCCUUAAGAACACAAAACUCGAGAACAUAUUUUUAAUAUUAUG
B3: MSA GFP 5'UTR (ssRNA)
RNA: B2 RNA with C22A

Legend:
[1] = molecular target: U1A spliceosomal protein (UniProt P09012 P09012:2-282); test: cell_activity; GFP repression in yeast, galactose vs glucose; conditions: tags: expressed from YCpU1A in S. cerevisiae RS453; hairpin
U1A spliceosomal protein, sequence (P09012 2-282, one chain of several): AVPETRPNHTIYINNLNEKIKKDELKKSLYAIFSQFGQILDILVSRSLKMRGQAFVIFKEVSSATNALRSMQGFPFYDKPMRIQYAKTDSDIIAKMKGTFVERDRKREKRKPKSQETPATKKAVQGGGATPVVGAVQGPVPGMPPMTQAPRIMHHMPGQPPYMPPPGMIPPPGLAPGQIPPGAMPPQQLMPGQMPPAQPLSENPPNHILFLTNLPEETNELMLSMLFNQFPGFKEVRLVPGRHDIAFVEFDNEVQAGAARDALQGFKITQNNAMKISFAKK
Description: (§1) YCpU1A, YCpIRP-1 and YCpCP were used for the galactose inducible expression of U1A, IRP-1 and MS2 coat protein, respectively. These plasmids contain a URA3 selection marker. The sequences and nomenclature of the GFP reporter plasmids are described in FIG. 3. Binding site insertions are represented by Capital letters. Differences between wild type and mutated binding sites are indicated by arrows.
(§2) This reduction specifically requires the presence of the wild type binding site and the cognate binding protein, and is not seen with either the mutant binding sites (FIG. 4c and f) or the non-cognate binding proteins (FIGS. 4a and d).

[2] = molecular target: MS2 coat protein (Bacteriophage MS2, UniProt P03612 P03612:2-130); test: as above; conditions: tags: expressed from YCpCP in S. cerevisiae RS453; chain copies: 2; hairpin
MS2 coat protein, sequence (P03612 2-130, one chain of several): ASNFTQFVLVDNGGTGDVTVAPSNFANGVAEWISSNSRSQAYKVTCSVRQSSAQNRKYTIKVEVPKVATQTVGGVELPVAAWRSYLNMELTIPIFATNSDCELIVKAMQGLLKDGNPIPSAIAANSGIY
Description: as §1, §2

| Binder | activity [1] [% repression] | activity [2] [% repression] |
| --- | --- | --- |
| B1 | ~40 |  |
| B2 |  | ~70 |
| B3 |  | ~50 |
